pKd: −log10 of the molar value. “Also recorded” adds a separate entry of the source.
Key:
CD4+ T cells [1] = test: Staining with peptide-loaded DR1101 tetramers (tetramer guided epitope mapping); assay type: cell-based, human
HLA-DRB1*0101 (DR0101) = HLA-DRB1*0101 (DR0101) (Homo sapiens, UniProt P01903+P01911, A100R/D57E/F55L/F60I/F76Y/I96L/L162R/M171V/P40L/Q125E/R42F/V115G/Y59C); test: HLA-DR peptide binding competition assay, DR0101; details: labels are Arg or Ala substitutions in synthetic peptide FVIII2194-2205
BO2C11 Fab fragment [2] = test: SPR kinetic runs at 25 C (kd/ka)
BO2C11 Fab fragment [3] = test: SPR, BO2C11 Fab on chip, 25 C
BO2C11 Fab fragment [4] = test: SPR, BO2C11 Fab on chip, 25 C, 1:1 model
BO2C11 Fab fragment [5] = test: SPR at 10-40 C, van't Hoff analysis (KD° from ΔGA°)
BO2C11 Fab fragment [6] = test: SPR at 10-40 C, van't Hoff analysis
CD4+ T cells [7] = test: Staining with peptide-loaded DR0101 tetramers (tetramer guided epitope mapping); assay type: cell-based, human; details: for Positive (individual peptide loaded tetramer staining): DR0101 tetramers, severe HA inhibitor subject 56A, day 18
Excerpt: T-cell clones were obtained from blood samples from both brothers by staining CD4+ cells with fluorescent DR0101 tetramers that were loaded with peptide FVIII2194-2213, followed by single-cell sorting and expansion. Clones were expanded by stimulation with irradiated peripheral blood mononuclear cells (PBMCs) from an HLA-mismatched individual plus phytohemagglutinin (Remel, Lenexa, Kans.) in the presence of human IL-2 (Hemagen Diagnostics, Inc., Columbia, Md.). Clonality was confirmed by tetramer staining, multiplex PCR and sequencing of the VDJ region in the PCR products.
(§1) a. Added 1.5 μl PE-labeled tetramers (final concentration 10 μg/ml. b. Mixed by shaking the rack containing the FACS tubes. c. Incubated the cells with tetramer for 1 hr in the 37 C 5% CO2 incubator.
(§2) a. Incubated tubes in the refrigerator for >5 min. b. Made an antibody cocktail consisting of 3.75 μl anti-CD4-APC, 3.75 μl anti-CD3-PerCP, 3.75 μl anti-CD25-FITC per sample. 3.75 ul×50=187.5 ul. c. Added 3.75 μl control antibodies to 75 μl control cells (1 —unstained; 2—anti-CD4-FITC; 3—anti-CD4-PE; 4—anti-CD3-PerCP; 5—anti-CD4-APC). d. Added 11.25 μl antibody cocktail to each sample. e. Incubated all samples at 4 C (put in the refrigerator) for 20 min in the dark.
(§3) a. Added 2 ml cold FACS wash buffer to each tube. b. Centrifuged at 1200 rpm, 10 min, 4 C, low brake in the Beckman Coulter Allegra 6KR centrifuge. c. Decanted the supernatant. d. Resuspended in 200 μl FACS wash buffer. e. Stored tubes in a covered ice container for FACS analysis.
(§4) a. Added 1.5 μl PE-labeled tetramers (final concentration 10 μg/ml). b. Mixed by shaking the rack containing the FACS tubes. c. Incubated the cells with tetramer for 1 hr in the 37 C 5% CO2 incubator.
(§5) a. Incubated tubes in the refrigerator for >5 min. b. Made an antibody cocktail consisting of 3.75 μl anti-CD4-APC, 3.75 μl anti-CD3-PerCP, 3.75 μl anti-CD25-FITC per sample. 3.75 ul×55=206.25 ul (For the CD25-FITC Ab, I opened a new vial (Lot #E016414)—taking 100 ul from this lot.) c. Added 3.75 μl control antibodies to 75 μl control cells (1 —unstained; 2—anti-CD4-FITC; 3—anti-CD4-PE; 4—anti-CD3-PerCP; 5—anti-CD4-APC). d. Added 11.25 μl antibody cocktail to each sample. e. Incubated all samples at 4 C (put in the refrigerator) for 20 min in the dark.
(§6) a. Added 2 ml cold FACS wash buffer to each tube. b. Centrifuged at 1200 rpm, 10 min, 4 C, low brake in the Beckman Coulter Allegra 6KR centrifuge. c. Decanted the supernatant. d. Resuspended in 250 μl FACS wash buffer. e. Stored tubes in a covered ice container for FACS analysis.

CD4+ T cells [8] = test: Staining with peptide-loaded DR1001 tetramers (tetramer guided epitope mapping); assay type: cell-based, human; details: for Positive (individual peptide loaded tetramer staining): DR1001 tetramers, severe HA inhibitor subject 56A, day 18
Procedure: as §1, §2, §3, §4, §5, §6

CSCC[C@H](NC(=O)[C@H](Cc1ccccc1)NC(=O)[C@H](CCCNC(=N)N)NC(=O)[C@@H](NC(=O)[C@H](CCCCN)NC(=O)[C@H](CCCCN)NC(=O)[C@H](Cc1ccc(O)cc1)NC(=O)[C@H](CCCCN)NC(=O)[C@@H](N)CCCNC(=N)N)C(C)C)C(=O)N[C@@H](C)C(=O)N[C@@H](Cc1ccc(O)cc1)C(=O)N[C@H](C(=O)N[C@@H](CC(=O)O)C(=O)N[C@@H](CCC(=O)O)C(=O)N[C@H](C(=O)N[C@@H](Cc1ccccc1)C(=O)N[C@@H](CCCCN)C(=O)N[C@H](C(=O)N[C@@H](CCCNC(=N)N)C(=O)N[C@@H](CCC(=O)O)C(=O)O)[C@@H](C)O)[C@@H](C)O)[C@@H](C)O [FVIII421-440]
tetramer staining of peptide-stimulated CD4+ T cells (CD4+ T cells [1]; mild HA subject 41A): weaker positive staining; also recorded: tetramer-positive

CC[C@H](C)[C@H](NC(=O)CNC(=O)[C@H](CO)NC(=O)[C@H](CCC(=O)O)NC(=O)[C@H](Cc1c[nH]cn1)NC(=O)[C@H](CCC(N)=O)NC(=O)[C@@H](NC(=O)[C@H](C)NC(=O)[C@H](CCC(=O)O)NC(=O)[C@H](CCCNC(=N)N)NC(=O)[C@@H](NC(=O)[C@H](CCCCN)NC(=O)[C@H](Cc1ccccc1)NC(=O)[C@@H](NC(=O)[C@H](CCC(=O)O)NC(=O)[C@H](CC(=O)O)NC(=O)[C@@H](NC(=O)[C@H](Cc1ccc(O)cc1)NC(=O)[C@H](C)NC(=O)[C@@H](N)CCSC)[C@@H](C)O)[C@@H](C)O)[C@@H](C)O)[C@@H](C)CC)C(=O)O [FVIII429-448]
tetramer staining of peptide-stimulated CD4+ T cells (CD4+ T cells [1]; inhibitor subject 1D): Weaker positive staining; also recorded: tetramer-positive

CC[C@H](C)[C@H](NC(=O)CNC(=O)[C@H](Cc1c[nH]cn1)NC(=O)[C@@H]1CCCN1C(=O)[C@H](Cc1ccc(O)cc1)NC(=O)[C@@H](NC(=O)[C@H](CC(N)=O)NC(=O)[C@H](Cc1ccc(O)cc1)NC(=O)[C@@H]1CCCN1C(=O)[C@H](CCCNC(=N)N)NC(=O)[C@H](CO)NC(=O)[C@H](C)N)[C@@H](C)CC)C(=O)N[C@H](C(=O)N[C@@H](CC(=O)O)C(=O)N[C@H](C(=O)N[C@@H](CCCNC(=N)N)C(=O)N1CCC[C@H]1C(=O)N[C@@H](CC(C)C)C(=O)N[C@@H](Cc1ccc(O)cc1)C(=O)N[C@@H](CO)C(=O)O)C(C)C)[C@@H](C)O [FVIII469-488]
tetramer staining of peptide-stimulated CD4+ T cells (CD4+ T cells [1]; inhibitor subject 1D): Weaker positive staining; also recorded: tetramer-positive

A2201R: synthetic peptide FVIII2194-2205 with A2201R substitution (SYFTNMFRTWSP; UniProt P00451 2213-2224, looked up, fragment A2201R) [Mutant A2201R]
binding to DR0101 (HLA-DRB1*0101 (DR0101)): abolished or greatly reduced

FVIII C2 domain protein F2196A (from UniProt P00451 2189-2351)
pKd (BO2C11 Fab fragment [2]): 9.66
kd relative to WT-C2 (BO2C11 Fab fragment [3]): > 4 fold
pKd (BO2C11 Fab fragment [4]): 9.66
koff (BO2C11 Fab fragment [4]): 0.0029 s⁻¹
kon (BO2C11 Fab fragment [4]): 1.3e+07 M⁻¹ s⁻¹
pKd (BO2C11 Fab fragment [5]): 10.00
TΔSA° (BO2C11 Fab fragment [6]): 9.8 kcal/mol
Δ(TΔSA°) (against WT-C2) (BO2C11 Fab fragment [6]): -3.11 kcal/mol
ΔGA° (BO2C11 Fab fragment [6]): -13.6 kcal/mol
ΔHA° (BO2C11 Fab fragment [6]): -3.82 kcal/mol
ΔΔGA° (against WT-C2) (BO2C11 Fab fragment [6]): 2.63 kcal/mol
ΔΔHA° (against WT-C2) (BO2C11 Fab fragment [6]): -0.478 kcal/mol

FVIII C2 domain protein L2251A (from UniProt P00451 2189-2351)
pKd (BO2C11 Fab fragment [2]): 11.21
pKd (BO2C11 Fab fragment [4]): 11.21
koff (BO2C11 Fab fragment [4]): 5e-05 s⁻¹
kon (BO2C11 Fab fragment [4]): 8.1e+06 M⁻¹ s⁻¹
pKd (BO2C11 Fab fragment [5]): 11.57
TΔSA° (BO2C11 Fab fragment [6]): 8.37 kcal/mol
Δ(TΔSA°) (against WT-C2) (BO2C11 Fab fragment [6]): -4.54 kcal/mol
ΔGA° (BO2C11 Fab fragment [6]): -15.8 kcal/mol
ΔHA° (BO2C11 Fab fragment [6]): -7.41 kcal/mol
ΔΔGA° (against WT-C2) (BO2C11 Fab fragment [6]): 0.478 kcal/mol
ΔΔHA° (against WT-C2) (BO2C11 Fab fragment [6]): -4.06 kcal/mol

FVIII C2 domain protein L2252A (from UniProt P00451 2189-2351)
pKd (BO2C11 Fab fragment [2]): 11.21
pKd (BO2C11 Fab fragment [4]): 11.21
koff (BO2C11 Fab fragment [4]): 0.00017 s⁻¹
kon (BO2C11 Fab fragment [4]): 2.8e+07 M⁻¹ s⁻¹
pKd (BO2C11 Fab fragment [5]): 11.04
TΔSA° (BO2C11 Fab fragment [6]): 3.35 kcal/mol
Δ(TΔSA°) (against WT-C2) (BO2C11 Fab fragment [6]): -9.56 kcal/mol
ΔGA° (BO2C11 Fab fragment [6]): -15.1 kcal/mol
ΔHA° (BO2C11 Fab fragment [6]): -11.7 kcal/mol
ΔΔGA° (against WT-C2) (BO2C11 Fab fragment [6]): 1.2 kcal/mol
ΔΔHA° (against WT-C2) (BO2C11 Fab fragment [6]): -8.37 kcal/mol

FVIII C2 domain protein S2250A (from UniProt P00451 2189-2351)
pKd (BO2C11 Fab fragment [2]): 10.66
pKd (BO2C11 Fab fragment [4]): 10.66
koff (BO2C11 Fab fragment [4]): 9.4e-05 s⁻¹
kon (BO2C11 Fab fragment [4]): 4.3e+06 M⁻¹ s⁻¹
pKd (BO2C11 Fab fragment [5]): 10.52
TΔSA° (BO2C11 Fab fragment [6]): 13.6 kcal/mol
Δ(TΔSA°) (against WT-C2) (BO2C11 Fab fragment [6]): 0.717 kcal/mol
ΔGA° (BO2C11 Fab fragment [6]): -14.3 kcal/mol
ΔHA° (BO2C11 Fab fragment [6]): -0.717 kcal/mol
ΔΔGA° (against WT-C2) (BO2C11 Fab fragment [6]): 1.91 kcal/mol
ΔΔHA° (against WT-C2) (BO2C11 Fab fragment [6]): 2.63 kcal/mol

FVIII C2 domain protein T2197A (from UniProt P00451 2189-2351)
pKd (BO2C11 Fab fragment [2]): 11.01
pKd (BO2C11 Fab fragment [4]): 11.01
koff (BO2C11 Fab fragment [4]): 4.3e-05 s⁻¹
kon (BO2C11 Fab fragment [4]): 4.4e+06 M⁻¹ s⁻¹
pKd (BO2C11 Fab fragment [5]): 11.21
TΔSA° (BO2C11 Fab fragment [6]): 12.4 kcal/mol
Δ(TΔSA°) (against WT-C2) (BO2C11 Fab fragment [6]): -0.478 kcal/mol
ΔGA° (BO2C11 Fab fragment [6]): -15.3 kcal/mol
ΔHA° (BO2C11 Fab fragment [6]): -2.87 kcal/mol
ΔΔGA° (against WT-C2) (BO2C11 Fab fragment [6]): 0.956 kcal/mol
ΔΔHA° (against WT-C2) (BO2C11 Fab fragment [6]): 0.478 kcal/mol

IFKYKWTVTVEDGPTKSDPR [Mutant A2-18]
Positive (individual peptide loaded tetramer staining) (CD4+ T cells [7]): yes
tetramer staining (CD4+ T cells [7]; loaded on DR0101, subject 56A): Very strong staining
Positive (individual peptide loaded tetramer staining) (CD4+ T cells [8]): yes
tetramer staining (CD4+ T cells [8]; loaded on DR1001, subject 56A): Very strong staining

IKTQGARQKFSSLYISQFII [Mutant C1-13]
Positive (individual peptide loaded tetramer staining) (CD4+ T cells [7]): no
Positive (individual peptide loaded tetramer staining) (CD4+ T cells [8]): no

KFSSLYISQFIIMYSLDGKK [Mutant C1-14]
Positive (individual peptide loaded tetramer staining) (CD4+ T cells [7]): no
Positive (individual peptide loaded tetramer staining) (CD4+ T cells [8]): no

KGVKHLKDFPILPGEIFKYK [Mutant A2-16]
Positive (individual peptide loaded tetramer staining) (CD4+ T cells [7]): no
Positive (individual peptide loaded tetramer staining) (CD4+ T cells [8]): no

LAPMIIHGIKTQGARQKFSS [Mutant C1-12]
Positive (individual peptide loaded tetramer staining) (CD4+ T cells [7]): no
Positive (individual peptide loaded tetramer staining) (CD4+ T cells [8]): no

M2199R: synthetic peptide FVIII2194-2205 with M2199R substitution (SYFTNRFATWSP; UniProt P00451 2213-2224, looked up, variant M2199R) [Mutant M2199R]
binding to DR0101 (HLA-DRB1*0101 (DR0101)): abolished or greatly reduced

QFIIMYSLDGKKWQTYRGNS [Mutant C1-15]
Positive (individual peptide loaded tetramer staining) (CD4+ T cells [7]): no
Positive (individual peptide loaded tetramer staining) (CD4+ T cells [8]): no

S2204R: synthetic peptide FVIII2194-2205 with S2204R substitution (SYFTNMFATWRP; UniProt P00451 2213-2224, looked up, fragment S2204R) [Mutant S2204R]
binding to DR0101 (HLA-DRB1*0101 (DR0101)): abolished or greatly reduced

TWVHYIAAEEEDWDYAPLVL [FVIII381-400]
tetramer staining of peptide-stimulated CD4+ T cells (CD4+ T cells [1]; mild HA subject 41A): high peptide-specific background staining

VEDGPTKSDPRCLTRYYSSF [Mutant A2-19]
Positive (individual peptide loaded tetramer staining) (CD4+ T cells [7]): no
Positive (individual peptide loaded tetramer staining) (CD4+ T cells [8]): no

From patent US20130116182A1, “Factor VIII B Cell Epitope Variants Having Reduced Immunogenicity” (priority 2009, published 2013)
